Experimental data as given in patent US20020115110A1 (GlaxoSmithKline, published 2002).

B1: sTL4 (ligand, not shown: small tags and cut ends)
chain: HHHHHHSDDDDKQERRSHEVNPAAHLTGANSSLTGSGGPLLWETQLGLAFLRGLSYHDGALVVTKAGYYYIYSKVQLGGVGCPLGLASTITHGLYKRTPRYPEELELLVSQQSPCGRATSSSRVWWDSSFLGGVVHLEAGEKVVVRVLDERLVRLRDGTRSYFGAFMV
notes: also called soluble TL4
B2: TR2Fc (Fc fusion, not shown: a dimerising Fc or GST)
chain: LPFCKEDEYPVGSECCPKCSPGYRVKEACGELTGTVCEPCPPGTYIAHLNGLSKCLQCQMCDPAMGLRASRNCSRTENAVCGCSPGHFCIVQDGDHCAACRAYATSSPGQRVQKGGTESQDTLCQNCPPGTFSPNGTLEECQHQTKCSWLVTKARSIEGRGT
notes: Secreted from mammalian cells as a dimer and purified on protein A. Residues 1-192 include the putative leader peptide, which is removed on secretion; also called TR2 (HVEM) extracellular domain fused to hinge-CH2-CH3 of human IgG1; product of plasmid TR2Fclink

Key:
[1] = biological target: T1, TR1Fc (human, UniProt O00300 22-401, limits assumed); test: SPR (BIAcore 2000), Fc fusion captured on immobilized protein A, ligand injected
T1 construct: also called TR1 Fc fusion protein; TR1 (osteoprotegerin, OPG) fused to hinge-CH2-CH3 of human IgG1
T1 sequence: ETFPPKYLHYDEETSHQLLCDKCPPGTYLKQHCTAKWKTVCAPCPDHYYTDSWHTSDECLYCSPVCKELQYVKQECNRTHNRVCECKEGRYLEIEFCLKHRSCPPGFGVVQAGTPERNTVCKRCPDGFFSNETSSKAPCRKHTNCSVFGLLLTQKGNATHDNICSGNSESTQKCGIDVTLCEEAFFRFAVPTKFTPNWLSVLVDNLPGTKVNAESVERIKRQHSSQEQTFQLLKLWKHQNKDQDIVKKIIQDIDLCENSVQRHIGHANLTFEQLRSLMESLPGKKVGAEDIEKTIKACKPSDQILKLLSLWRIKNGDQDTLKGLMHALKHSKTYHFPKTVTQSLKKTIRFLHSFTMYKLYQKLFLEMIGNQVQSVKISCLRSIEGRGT
Experimental: (§1) Surface plasmon resonance. Protein A was immobilized on to a research grade carboxymethyldextran chip (CM5) using amin coupling procedures described previously (4). Flow cell 1 was activated with NHS/EDC for 5 min. Protein A was injected a a concentration of 1 ug/ml in NaOAc buffer (10 mM, pH 5.0) until 1000RUs of protein were coupled. Remaining activated groups were blocked with a 7 min injection of 1M ethanolamine. A control surface was created by repeating the coupling procedure in a flow cell2 without incorporating protein A. In a BIAcore 2000 biosensor (BIAcore Inc. Uppsala, Sweden) TR1Fc or TR2Fc were then injected at a flow rate of 100 ul/min followed by injection of TL2 or TL4, and the binding to receptor monitored by chances in surface plasmon resonance relative to the control chip. In these experiments, TR1Fc bound to TL2 but not TL4 and TR2Fc bound to TL4 but not TL2.

[2] = biological target: T2, sTL2 (Homo sapiens (Human), UniProt P50591 97-281); test: as above
T2 construct: also called soluble TL2; TRAIL
T2 sequence (P50591 97-281): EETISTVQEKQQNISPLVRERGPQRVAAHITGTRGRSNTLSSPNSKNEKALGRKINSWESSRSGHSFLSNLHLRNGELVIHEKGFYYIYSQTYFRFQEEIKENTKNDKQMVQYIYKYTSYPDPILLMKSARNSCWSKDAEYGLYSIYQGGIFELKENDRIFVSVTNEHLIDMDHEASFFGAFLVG
Experimental: as §1

Row | Binder | binding result [1] | binding result [2]
1 | B1 | no binding | –
2 | B2 | – | no binding
